B1: Alb23 D57A (VHH)
VHH: EVQLLESGGGLVQPGGSLRLSCAASGFTFRSFGMSWVRQAPGKGPEWVSSISGSGSATLYADSVKGRFTISRDNSKNTLYLQMNSLRPEDTAVYYCTIGGSLSRSSQGTLVTVSS
notes: VHH alone
B2: Alb23 S54A (VHH)
VHH: B1 VHH with S54A, A57D
notes: VHH alone
B3: Alb23 S103A (VHH)
VHH: B1 VHH with A57D, S103A
notes: VHH alone
B4: Alb23 G66A (VHH)
VHH: B1 VHH with A57D, G66A
notes: VHH alone
B5: Alb23 T58A (VHH)
VHH: B1 VHH with A57D, T58A
notes: VHH alone
B6: Alb23 S35A (VHH)
VHH: B1 VHH with S35A, A57D
notes: VHH alone
B7: Alb23 D62A (VHH)
VHH: B1 VHH with A57D, D62A
notes: VHH alone
B8: Alb23 S31A (VHH)
VHH: B1 VHH with S31A, A57D
notes: VHH alone
B9: Alb23 V64A (VHH)
VHH: B1 VHH with A57D, V64A
notes: VHH alone
B10: Alb23 S50A (VHH)
VHH: B1 VHH with S50A, A57D
notes: VHH alone
B11: Alb23 K65A (VHH)
VHH: B1 VHH with A57D, K65A
notes: VHH alone
B12: Alb23 R104A (VHH)
VHH: B1 VHH with A57D, R104A
notes: VHH alone
B13: Alb23 Y60A (VHH)
VHH: B1 VHH with A57D, Y60A
notes: VHH alone
B14: Alb23 S56A (VHH)
VHH: B1 VHH with S56A, A57D
notes: VHH alone
B15: Alb23 I51A (VHH)
VHH: B1 VHH with I51A, A57D
notes: VHH alone

Substitutions are numbered along the chain they refer to.

The target in the first assay is T1, cynomolgus monkey serum albumin (cynomolgus monkey, UniProt A2V9Z4 25-608).
T1 construct: Immobilised on SPR chips; also called cynoSA; cynomolgus albumin
The assay is described as follows: SPR Biacore 8K+ SCK, albumin on chip, pH 7.4. Background: SPR reads the build-up and loss of mass on a sensor chip optically.
What is called Kd is a measure of binding affinity in units of concentration. B1 showed a Kd of 6.25 nM.

As for B2, the Kd is 3.13 nM.

The molecule B3 returned a Kd of 4.2 nM.

On to B4, for which the Kd is 5.84 nM.

In turn, B5 yielded a Kd of 6.83 nM.

On to B6, for which the Kd came to 5.24 nM.

Molecule B7 came in with a Kd of 3.48 nM.

In the case of B8, binding was characterised by a dissociation constant (Kd) of 3.74 nM.

B9 had a Kd of 4.11 nM.

For the molecule B10, the Kd stood at 2.6 nM.

B11 returned a Kd of 3.18 nM.

With B12, binding was characterised by a dissociation constant (Kd) of 4.92 nM.

In turn, B13 registered a Kd of 4.58 nM.

On to B14, for which binding was characterised by a dissociation constant (Kd) of 3.65 nM.

B15: the dissociation constant Kd worked out at 5.53 nM.

In another assay the target is T2, human serum albumin (human, UniProt P02768 25-609).
T2 construct: Immobilised on SPR chips; also added in solution in the FcRn occupancy assays; also called HSA; humanSA
Description: SPR Biacore 8K+ SCK, albumin on chip, pH 7.4.
For the molecule B1, the Kd stood at 5.58 nM.

As for B2, the dissociation constant (Kd) was found to be 2.81 nM.

For the molecule B3, the affinity, expressed as Kd, was 3.85 nM.

B4 showed an equilibrium dissociation constant (Kd) of 3.97 nM.

On to B5, for which the Kd is 5.97 nM.

Turning to B6, the equilibrium dissociation constant (Kd) is 4.95 nM.

Regarding B7, the affinity, expressed as Kd, was 3.07 nM.

As to B8, the Kd came out at 3.36 nM.

Molecule B9 gave a Kd of 2.9 nM.

As to B10, binding was put at a Kd of 2.33 nM.

As to B11, the equilibrium dissociation constant (Kd) amounted to 5.36 nM.

Regarding B12, the Kd stood at 4.58 nM.

Turning to B13, the Kd worked out at 4.28 nM.

As for B14, the Kd came to 3.33 nM.

On to B15, for which the dissociation constant Kd stood at 5.17 nM.

The next assay has as its target T3, mouse serum albumin (mouse, UniProt P07724 25-608).
T3 construct: Immobilised on SPR chips; also called mouseSA; MSA
Description: SPR Biacore 8K+ SCK, albumin on chip, pH 7.4.
B1: binding was characterised by a dissociation constant (Kd) of 50.6 nM.

B2 had a Kd of 25.6 nM.

Molecule B3 registered a dissociation constant (Kd) of 38.2 nM.

Regarding B4, binding was characterised by a dissociation constant (Kd) of 39.5 nM.

The molecule B5 yielded a dissociation constant (Kd) of 57.1 nM.

In the case of B6, the Kd was determined as 37.6 nM.

Turning to B7, binding was put at a Kd of 36.5 nM.

For B8, the equilibrium dissociation constant (Kd) amounted to 29.3 nM.

Take B9: binding was characterised by a dissociation constant (Kd) of 31.9 nM.

B10 yielded an equilibrium dissociation constant (Kd) of 19 nM.

In turn, B11 returned a Kd of 52.3 nM.

Molecule B12 returned an equilibrium dissociation constant (Kd) of 49.7 nM.

B13 came in with a Kd of 42.2 nM.

As for B14, the dissociation constant (Kd) is 37.7 nM.

For the molecule B15, binding was characterised by a dissociation constant (Kd) of 42.3 nM.

(Values after patent US20260152573A1 (ARGENX, published 2026).)
